This is an account of results in US20260167721A1 (ABLEXIS, published 2026).

Changes are numbered by the printed parent chain.

The target in test [1] is T1, recombinant human CD3 epsilon/gamma heterodimer (human, UniProt P07766 23-126; P09693 23-116).
T1 construct: Recombinant protein in solution (200-50 nM) in the Octet assay; also called hCD3 E/G
Nature of the test: Octet BLI, mAb on FAB2G sensor, hCD3 E/G 200-50 nM; R^2 0.49.
Description: (§1) Samples were evaluated by flow cytometry analysis against Jurkat and human Pan-T cells (FIG. 1B) as well as by Octet against recombinant human CD3 proteins to evaluate apparent affinities and binding off-rates (Table 6, infra).

Test [2] addresses T2, recombinant human CD3 epsilon/delta heterodimer (human, UniProt P07766 23-126; P04234 22-105).
T2 construct: Recombinant protein in solution (200-50 nM) in the Octet assay; also called hCD3 E/D; human CD3E/D
Nature of the test: Octet BLI, mAb on FAB2G sensor, hCD3 E/D 200-50 nM; R^2 0.60. On the technique in general: Biolayer interferometry detects binding as a change in optical thickness at a sensor tip.
Description: as §1

Test [3] concerns the target T2, recombinant human CD3 epsilon/delta …. Description: Octet BLI, mAb on FAB2G sensor, hCD3 E/D 200-50 nM; R^2 0.98.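 Note: antibodies purified from hybridoma supernatants, measured by Octet binding to recombinant human CD3 protein.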
Description: as §1
For test [4], the target named is T1, recombinant human CD3 epsilon/gamma …. Nature of the test: Octet BLI, mAb on FAB2G sensor, hCD3 E/G 200-50 nM; R^2 0.79.
Description: as §1
Test [5] shares this target. Nature of the test: Octet BLI, mAb on FAB2G sensor, hCD3 E/G 200-50 nM; R^2 0.91.
Description: as §1
Test [6] has as its target T2, recombinant human CD3 epsilon/delta …. Nature of the test: Octet BLI, mAb on FAB2G sensor, hCD3 E/D 200-50 nM; R^2 0.97.
Description: as §1
The target of test [7] is T3, recombinant CD3 proteins (UniProt P07766 23-126).
T3 construct: elsewhere it uses human CD3 E/D and E/G heterodimers
Nature of the test: Octet BLI, recombinant CD3; Full R^2 0.995.

Test [8] deals with T4, human CD3 (TCR/CD3 complex) on the cell surface (human, UniProt P07766 23-207; P09693 23-182; P04234 22-171; P20963 22-164).
T4 construct: whole, on cells; also called CD3 on Pan-T cells; CD3 on Jurkat WT cells
Description: flow cytometry, Pan-T cells, 1 ug/mL. (In flow cytometry, cells or beads pass a laser one at a time.)

For test [9], the target named is T4, human CD3 (TCR/CD3 complex) on the cell …. Nature of the test: flow cytometry, Pan-T cells, 10 ug/mL.
The target in test [10] is T3, recombinant CD3 proteins. Description: Octet BLI, recombinant CD3; Full R^2 0.9943.
Test [11] has as its target T4, human CD3 (TCR/CD3 complex) on the cell …. Nature of the test: flow cytometry, Jurkat WT cells, 10 ug/mL.
Test [12] has the same target. Description: flow cytometry, gMFI Jurkat WT over Jurkat TCRb KO, 10 ug/mL.
Test [13] has the same target. Description: flow cytometry, Jurkat WT cells, 1 ug/mL.
For test [14] the target is unchanged. Nature of the test: flow cytometry, gMFI Jurkat WT over Jurkat TCRb KO, 1 ug/mL.
Test [15] has as its target T3, recombinant CD3 proteins. Nature of the test: Octet BLI, recombinant CD3; Full R^2 0.999.
Test [16] has as its target T3, recombinant CD3 proteins. Nature of the test: Octet BLI, recombinant CD3; Full R^2 0.000*.
Test [17] concerns the target T3, recombinant CD3 proteins. Description: Octet BLI, recombinant CD3; Full R^2 0*.
Test [18] deals with T1, recombinant human CD3 epsilon/gamma …. Nature of the test: Octet BLI, mAb on FAB2G sensor, hCD3 E/G 200-50 nM; R^2 0.63.
Description: as §1
For test [19], the target named is T2, recombinant human CD3 epsilon/delta …. Nature of the test: Octet BLI, mAb on FAB2G sensor, hCD3 E/D 200-50 nM; R^2 0.99.

T4 sequence (P07766 23-207, chain 1 of 4): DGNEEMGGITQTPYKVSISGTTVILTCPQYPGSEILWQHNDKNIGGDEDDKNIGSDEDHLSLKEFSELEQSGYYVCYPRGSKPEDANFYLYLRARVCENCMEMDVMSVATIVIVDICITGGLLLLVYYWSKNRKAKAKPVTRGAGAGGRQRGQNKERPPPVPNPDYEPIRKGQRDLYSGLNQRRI
T4 sequence (P09693 23-182, chain 2 of 4): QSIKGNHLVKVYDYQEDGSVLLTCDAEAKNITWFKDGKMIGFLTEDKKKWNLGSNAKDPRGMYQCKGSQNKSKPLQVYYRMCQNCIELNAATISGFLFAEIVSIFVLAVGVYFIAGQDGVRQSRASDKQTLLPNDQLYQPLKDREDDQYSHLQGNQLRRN
T4 sequence (P04234 22-171, chain 3 of 4): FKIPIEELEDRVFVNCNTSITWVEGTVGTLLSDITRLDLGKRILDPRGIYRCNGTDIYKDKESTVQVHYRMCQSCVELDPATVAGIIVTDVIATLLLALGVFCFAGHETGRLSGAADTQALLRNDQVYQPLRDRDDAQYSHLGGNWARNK
T4 sequence (P20963 22-164, chain 4 of 4): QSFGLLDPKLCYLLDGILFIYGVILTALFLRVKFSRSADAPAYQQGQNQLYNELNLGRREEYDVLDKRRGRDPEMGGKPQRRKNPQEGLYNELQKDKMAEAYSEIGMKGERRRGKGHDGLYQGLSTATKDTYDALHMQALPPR
T1 sequence (P07766 23-126, chain 1 of 2): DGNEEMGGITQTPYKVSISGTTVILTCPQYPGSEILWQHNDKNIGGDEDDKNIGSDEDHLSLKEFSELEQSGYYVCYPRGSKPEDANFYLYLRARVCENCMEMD
T1 sequence (P09693 23-116, chain 2 of 2): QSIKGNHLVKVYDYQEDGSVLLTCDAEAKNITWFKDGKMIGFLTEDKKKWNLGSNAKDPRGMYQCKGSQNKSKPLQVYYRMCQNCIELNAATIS
T3 sequence (P07766 23-126): as the sequence (P07766 23-126, chain 1 of 2) above
T2 sequence (P07766 23-126, stated change not applied, chain 1 of 2): as the sequence (P07766 23-126, chain 1 of 2) above
T2 sequence (P04234 22-105, stated change not applied, chain 2 of 2): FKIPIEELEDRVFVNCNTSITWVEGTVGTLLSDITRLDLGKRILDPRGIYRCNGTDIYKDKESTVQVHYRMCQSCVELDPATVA

B1: ABL-CD3-18 (antibody, V domains shown)
VH: EVQLVESGEGLVQPGGSLRLSCAASGFTFSSYAMHWVRQAPGKGLEYVSAISSNGGRTYYADSVKGRFTISRDNSKNTLYLQMGSLRAEDMAVYYCARGGSLDYWGQGTLVTVSS
VL: DIVMTQTPLSSPVTPGQPASISCRSSQSLVHSDGNTYLNWLQQRPGQPPRLLIYKISDRFSGVPDRFSGSGAGTDFTLKIGRVEAEDVGVYYCMQSTQFPITFGQGTRLEIK
notes: Chimeric hybridoma mAb: human V, CH1, upper hinge; mouse middle hinge, CH2, CH3
What is called Kd is the equilibrium constant for the complex coming apart. What is called koff is the rate constant with which the complex falls apart. The term kon denotes the second-order rate constant of association. With B1, in [1], the Kd was less than 1 pM, the koff was less than 1e-07 s⁻¹ and the kon is 27000 M⁻¹ s⁻¹. In addition, in test [2], the Kd is less than 1 pM, the koff was less than 1e-07 s⁻¹ and the kon stood at 29100 M⁻¹ s⁻¹.

B2: ABL-CD3-21 (antibody, V domains shown)
VH: EVQLVESGGGLVKPGGSLRLSCAASGFTFSSYSMNWVRQAPGKGLEWVSSISRSSSYIYYADSVKGRFTLSRDNAKNSLYLQMNSLRGEDTAIYYCGRDGKGAIFLDYWGQGTLVTVSS
VL: SYELTQPPSVSVSPGQTARITCSGDALPKKYAYWYQQKSGQAPVLVIYEDSKRPSGIPERFSGSSSGTMATLTISGAQVEDEADYYCYSTHSSGNHRVFGGGTKLTVL
notes: as for B1
As to B2, in test [3], the Kd is 95.3 nM, the Response is 0.27, the koff worked out at 0.036 s⁻¹ and the kon was 378000 M⁻¹ s⁻¹. Also, in test [4], the Kd worked out at 130 nM, the koff amounted to 0.0994 s⁻¹ and the kon worked out at 766000 M⁻¹ s⁻¹.

B3: ABL-CD3-17 (antibody, V domains shown)
VH: EVQLVESGGGLVQPGGSLRLSCAASGFTFSRYSINWVRQAPGKGLEWVSYISSSSSTIYYADSVKGRFTISRDNAKNSLYLQMNSLRDEDTAVYYCARERWELLYFDYWGQGTLVTVSS
VL: NFMLTQPHSVSESPGKTVTISCTRSSGSIASKYVQWYQQRPGSSPTTVIYEDNQRPSGVPDRFSGSIDSSSNSASLTISGLKTEDEADYYCQSYDSNNRVFGGGTKLTVL
notes: as for B1
Turning to B3, in test [5], the Kd worked out at 210 nM, the koff was determined as 0.132 s⁻¹ and the kon was 627000 M⁻¹ s⁻¹. Further, in test [6], the Kd was 103 nM, the Response turned out to be 0.22, the koff was 0.0318 s⁻¹ and the kon was determined as 309000 M⁻¹ s⁻¹.

B4: Control Humanized anti-CD3 (high affinity) scFv-Fc knob/TM (bispecific antibody)
scFv: EVQLVESGGGLVQPGGSLRLSCAASGFTFSTYAMNWVRQAPGKGLEWVGRIRSKYNNYATYYADSVKGRFTISRDDSKNTLYLQMNSLRAEDTAVYYCVRHGNFGDSYVSWFAYWGQGTLVTVSSGKPGSGKPGSGKPGSGKPGSQAVVTQEPSLTVSPGGTVTLTCGSSTGAVTTSNYANWVQQKPGKSPRGLIGGTNKRAPGVPARFSGSLLGGKAALTISGAQPEDEADYYCALWYSNHWVFGGGTKLTVLGGGGSDKTHTCPPCPAPEFEGGPSVFLFPPKPKDTLMISRTPEVTCVVVDVSHEDPEVKFNWYVDGVEVHNAKTKPREEQYNSTYRVVSVLTVLHQDWLNGKEYKCKVSNKALPASIEKTISKAKGQPREPQVYTLPPCREEMTKNQVSLWCLVKGFYPSDIAVEWESNGQPENNYKTTPPVLDSDGSFFLYSKLTVDKSRWQQGNVFSCSVMHEALHNHYTQKSLSLSPGK
heavy: EVQLVQSGAEVKKPGSSVKVSCKASGYTITDSNIHWVRQAPGQSLEWIGYIYPYNGGTDYNQKFKNRATLTVDNPTNTAYMELSSLRSEDTAFYYCVNGNPWLAYWGQGTLVTVSSASTKGPSVFPLAPSSKSTSGGTAALGCLVKDYFPEPVTVSWNSGALTSGVHTFPAVLQSSGLYSLSSVVTVPSSSLGTQTYICNVNHKPSNTKVDKRVEPKSCDKTHTCPPCPAPEFEGGPSVFLFPPKPKDTLMISRTPEVTCVVVDVSHEDPEVKFNWYVDGVEVHNAKTKPREEQYNSTYRVVSVLTVLHQDWLNGKEYKCKVSNKALPASIEKTISKAKGQPREPQVCTLPPSREEMTKNQVSLSCAVKGFYPSDIAVEWESNGQPENNYKTTPPVLDSDGSFFLVSKLTVDKSRWQQGNVFSCSVMHEALHNRFTQKSLSLSPGK
light: DIQLTQSPSTLSASVGDRVTITCRASESLDNYGIRFLTWFQQKPGKAPKLLMYAASNQGSGVPSRFSGSGSGTEFTLTISSLQPDDFATYYCQQTKEVPWSFGQGTKVEVKRTVAAPSVFIFPPSDEQLKSGTASVVCLLNNFYPREAKVQWKVDNALQSGNSQESVTEQDSKDSTYSLSSTLTLSKADYEKHKVYACEVTHQGLSSPVTKSFNRGEC
On to B4, for which the Kd with recombinant CD3 proteins [7] came out at 44.9 nM; with recombinant CD3 proteins [10], 39.5 nM. Besides, the koff in the test with recombinant CD3 proteins [7] was determined as 0.0111 s⁻¹; in the test with recombinant CD3 proteins [10], 0.0102 s⁻¹. The kon is 248000 M⁻¹ s⁻¹ with recombinant CD3 proteins [7] and 259000 M⁻¹ s⁻¹ in the test with recombinant CD3 proteins [10]. Further, the “% Positive” value in test [8] and in test [9] was 99.4% throughout. Further, the gMFI was 66400 gMFI in test [8], 178000 gMFI in [9], 21600 gMFI in test [11] and 15500 gMFI in [13]. Moreover, the “Jurkat WT/KO (Fold)” value in test [12] is 5.2 fold; in test [14], 4 fold.

B5: CD3 × CD33-BspAb125 (bispecific antibody)
chain 1: not shown
chain 2: B4 heavy
chain 3: B4 light
For the molecule B5, in the test with recombinant CD3 proteins [15], the Kd is 319 nM, the koff was found to be 0.00375 s⁻¹ and the kon worked out at 11800 M⁻¹ s⁻¹.

B6: Control Humanized anti-CD3 (low affinity) scFv-Fc knob/TM (bispecific antibody)
scFv: B4 scFv with A113D
heavy: B4 heavy
light: B4 light
For the molecule B6, the Kd in the test with recombinant CD3 proteins [16] was determined as 4.38 nM; with recombinant CD3 proteins [17], 4.27 nM. Also, the koff in the test with recombinant CD3 proteins [16] was 5.48e-05 s⁻¹; with recombinant CD3 proteins [17] it was 5.33e-05 s⁻¹. Besides, the kon in the test with recombinant CD3 proteins [16] and in the test with recombinant CD3 proteins [17] was 12500 M⁻¹ s⁻¹ each time. Further, the figures for the “% Positive” value in test [8] and in test [9] were 1.5% and 7.9%, respectively. In addition, the gMFI in test [8] stood at 2070 gMFI; in test [9] it was 3410 gMFI; in test [11], 2090 gMFI; in test [13] it was 1920 gMFI. For the same molecule, the figures for the “Jurkat WT/KO (Fold)” value in [12] and in test [14] were 1 fold and 0.9 fold, respectively.

B7: ABL-CD3-16 (antibody, V domains shown)
VH: EVQLVESGGGLVQPGGSLRLSCAASGFTFSRYWMTWVRQAPGKGLEWVANIKEDGSEKYCVDSVKGRFTISRDNAKNSLYLQLNSLRAEDTAVYYCARERRTGYFDYWGQGTLVTVSS
VL: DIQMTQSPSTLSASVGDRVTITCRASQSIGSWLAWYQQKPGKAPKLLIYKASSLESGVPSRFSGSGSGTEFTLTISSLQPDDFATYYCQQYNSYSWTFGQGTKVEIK
notes: as for B1
With B7, in test [18], the Kd was less than 1 pM, the koff is less than 1e-07 s⁻¹ and the kon stood at 36200 M⁻¹ s⁻¹. In test [19], the Kd was 29.5 nM, the Response was 0.19, the koff worked out at 0.00153 s⁻¹ and the kon was determined as 51900 M⁻¹ s⁻¹.
